What was measured:
[1] = biological target: SARS-CoV-2 wild-type Wuhan-Hu-1 spike protein (2019-nCoV spike protein) (SARS-CoV-2 (Wuhan-Hu-1)) (UniProt P0DTC2); test: SPR
[2] = biological target: Wuhan-Hu-1 SARS-CoV-2 receptor binding domain (2019-nCoV spike RBD) (SARS-CoV-2 (Wuhan-Hu-1)) (UniProt P0DTC2); test: SPR

“Urtica dioica agglutinin (UDA) (natural protein)” showed a Kd [1] of 7 nM and a Kd [2] of 22 nM.

Source: publication PMC9468479
